Consider nine substances from article PMC5465497.

The target of experiment [1] is MI (CH3) AG/GA Fc-like chain, GA domain (IgG1 CH3 with positions 85.1 and 86 and their set exchanged for IgA CH3 residues) (human). The experiment is described as follows: non-reduced SDS-PAGE with scanning densitometry of co-expressed chains (heterodimerization assay); two Fc-like chains co-transfected at a 1:1 ratio into HEK293-EBNA cells; Protein A-purified preparation; 4-12% gel, Coomassie staining; bands below the 49-kDa marker excluded.

Experiment [2] deals with Herceptin IgG (human). The experiment is described as follows: SPR; antibody covalently coupled onto a CM5 sensor chip, Fc receptor extracellular domain injected; HBS-EP+ running buffer; room temperature; steady-state fitting model; no regeneration.
Experiment [3] concerns the target BEAT 2/3 (A): CH2 γ3 - BEAT CH3 (A) γ3; (B): CH2 γ1 - BEAT CH3 (B) γ1 D84.4Q (human). Nature of the experiment: SPR; antibody covalently coupled onto a CM5 sensor chip, FcRn injected; HBS-EP+ adjusted to pH 6; room temperature; steady-state fitting model; regeneration with HBS-EP+ pH 7.4. (In general: In SPR one partner is held on a chip, and binding of the other changes the refractive index at the surface.)

The target in experiment [4] is BEAT 2/3 (A): CH2 γ1 - BEAT CH3 (A) γ3; (B): CH2 γ1 - BEAT CH3 (B) γ1 D84.4Q (human). Described as above.
Experiment [5] addresses BEAT 2/3 (A): CH2 γ3 - BEAT CH3 (A) γ3; (B): CH2 γ1 - BEAT CH3 (B) γ1 (human). The experiment is described as above.
In experiment [6] the target is BEAT 2/3 (A): CH2 γ1 - BEAT CH3 (A) γ3; (B): CH2 γ1 - BEAT CH3 (B) γ1 (human). The experiment is described as above.
In experiment [7] the target is Herceptin IgG (human). The description is as above.
The target of experiment [8] is KiH (knobs-into-holes) Fc-like chain, second engineered CH3 domain (human). The experiment is described as follows: non-reduced SDS-PAGE with scanning densitometry of co-expressed chains (heterodimerization assay); two Fc-like chains co-transfected at a 1:1 ratio into HEK293-EBNA cells; Protein A-purified preparation; 4-12% gel, Coomassie staining; bands below the 49-kDa marker excluded.

Experiment [9] addresses Herceptin IgG (human). Nature of the experiment: SPR; antibody captured via Protein A, FcγR1a injected; room temperature; 1:1 Langmuir model with Rmax set to local; regeneration with 10 mM glycine pH 1.5.
Experiment [10] addresses BEAT 2/3 (A): CH2 γ3 - BEAT CH3 (A) γ3; (B): CH2 γ1 - BEAT CH3 (B) γ1 D84.4Q (human). The experiment is described as follows: SPR; antibody covalently coupled onto a CM5 sensor chip, Fc receptor extracellular domain injected; HBS-EP+ running buffer; room temperature; steady-state fitting model; no regeneration.
Experiment [11] addresses BEAT 2/3 (A): CH2 γ1 - BEAT CH3 (A) γ3; (B): CH2 γ1 - BEAT CH3 (B) γ1 D84.4Q (human). Described as above.
The target of experiment [12] is BEAT 2/3 (A): CH2 γ1 - BEAT CH3 (A) γ3; (B): CH2 γ1 - BEAT CH3 (B) γ1 (human). The description is as above.
For experiment [13], the target named is SEED Fc-like chain, the other SEED CH3 domain (human). The experiment is described as follows: non-reduced SDS-PAGE with scanning densitometry of co-expressed chains (heterodimerization assay); two Fc-like chains co-transfected at a 1:1 ratio into HEK293-EBNA cells; Protein A-purified preparation; 4-12% gel, Coomassie staining; bands below the 49-kDa marker excluded.

Take “MI (CH3) AG/GA Fc-like chain, AG domain with Trp 81 back mutated to threonine (domain or fragment)”: in [1], the loss in HD rate against the heterodimer with Trp 81 worked out at 4%.

One may read the Kd as the free concentration of one partner at which half of the binding sites on the other are occupied at equilibrium, for simple one-to-one binding. A lower Kd goes with a tighter complex. In the experiment with Herceptin IgG (human) [2], “FcγR2a extracellular domain, variant H167 (from UniProt P12318 34-217) (receptor)” showed a Kd of 2000 nM.

Turning to “FcRn extracellular domain (with beta-2-microglobulin) (from UniProt P55899 24-297; P61769 21-119) (receptor)”, the Kd stood at 577 nM in experiment [3]; 686 nM in experiment [4]; 543 nM in [5]; 708 nM in experiment [6]; 622 nM with Herceptin IgG (human) [7].

For the substance “KiH (knobs-into-holes) Fc-like chain, first engineered CH3 domain (domain or fragment)”, the heterodimer content in experiment [8] was 67%.

For the substance “FcγR1a extracellular domain (from UniProt P12314 16-292) (receptor)”, the Kd with Herceptin IgG (human) [9] was 0.138 nM.

“FcγR2b extracellular domain (from UniProt P31994 43-217) (receptor)” showed a Kd with Herceptin IgG (human) [2] of 4270 nM.

Take “FcγR3a extracellular domain, variant V176 (from UniProt P08637 17-208) (receptor)”: the Kd came to 238 nM in [10], 347 nM in experiment [11], 206 nM in [12] and 267 nM in the experiment with Herceptin IgG (human) [2].

On to “SEED Fc-like chain, the SEED CH3 domain that has Trp 81 (domain or fragment)”, for which, in [13], the heterodimer content was found to be 83%.

With “SEED Fc-like chain with Trp 81 back mutated to threonine (domain or fragment)”, the loss in HD rate against the heterodimer with Trp 81 in experiment [13] is 20%.
